B5: CENP-C(1264-1411) (domain or fragment, Drosophila melanogaster, UniProt Q9VHP9 1264-1411, looked up)
chain: GPVVFSTPLRDEQEEASTKLMQWLRGVGDAPPSASMSDENASVSSANELIFCQVDGIDYAFYNTKEKAMLGYMRFKPYQKRSMKQAKVHPLKLLVQFGEFNVETLAVGEEKEVHSVLRVGDMIEIDRGTRYSIQNAIDKVSVLMCIRS
notes: also called CENP-C cupin domain; source: E. coli Rosetta (DE3), purified; tag removed with 3C, SEC; not shown: His, N-terminal, cleaved
B7: His-CENP-C(1264-1411) (domain or fragment)
chain: GPVVFSTPLRDEQEEASTKLMQWLRGVGDAPPSASMSDENASVSSANELIFCQVDGIDYAFYNTKEKAMLGYMRFKPYQKRSMKQAKVHPLKLLVQFGEFNVETLAVGEEKEVHSVLRVGDMIEIDRGTRYSIQNAIDKVSVLMCIRS
notes: vector pEC-K-3C-His; also called CENP-C cupin domain; source: E. coli Rosetta (DE3), purified (HisTrap, SEC); not shown: His, N-terminal, kept

Assays:
H4 [1] = molecular target: T1, H4 (Drosophila melanogaster, UniProt P84040 1-103); experiment: crystal structure; crystal form II; complex in 20 mM Tris-HCl pH 8.0, 1 M NaCl, 2 mM DTT; lithium sulphate, 0.1 M Tris pH 8.5, PEG 4000; anisotropic diffraction; conditions: both partners purified
T1 construct: histone H4, Drosophila melanogaster (dm H4); plasmid pET22b H4, gift of Karolin Luger; also called histone H4; dm H4

His-CAL1(1-160) [2] = molecular target: T2, His-CAL1(1-160) (Drosophila melanogaster, UniProt Q9VEN2 1-160); experiment: as above; conditions: both partners purified
T2 construct: CAL1, Drosophila melanogaster, residues 1-160; In crystal form I only CAL1 residues 17-47 were seen; the authors conclude that CAL1 was proteolytically cleaved during crystallisation; also called His-CAL1(1-160 WT); source: E. coli BL21 (DE3) Gold, purified (HisTrap native or Ni-NTA denaturing; SEC); not shown: His, N-terminal, kept
T2 sequence (looked up): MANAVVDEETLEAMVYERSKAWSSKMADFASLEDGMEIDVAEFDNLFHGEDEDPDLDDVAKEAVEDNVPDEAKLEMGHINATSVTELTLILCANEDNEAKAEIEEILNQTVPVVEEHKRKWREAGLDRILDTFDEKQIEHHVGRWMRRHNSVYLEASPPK

H4 [3] = molecular target: T1, H4; experiment: crystal structure; crystal form I; complex at 27 mg/ml in 20 mM Tris-HCl pH 8.0, 1 M NaCl, 5 mM DTT; 0.01 M cobalt(II) chloride, 0.1 M MES pH 6.5, 1.8 M ammonium sulphate, 18°C; crystals after about a year; conditions: both partners purified
His-CAL1(1-160) [4] = molecular target: T2, His-CAL1(1-160); experiment: cross-linking; gel-filtered complex dialysed into PBS; EDC/sulpho-NHS 1.5 h or BS3 2 h at RT; gel bands digested with trypsin, LC-MS/MS; conditions: both partners purified
CENP-A(101-225)-H4 [5] = molecular target: T3, CENP-A(101-225)-H4 (Drosophila melanogaster, UniProt Q9V6Q2 101-225; P84040 1-103); experiment: pull-down; His-CAL1(1-160) WT or mutant mixed with 1.3 times molar excess of CENP-A(101-225)-H4 and captured on Ni-NTA resin; 20 mM Tris-HCl pH 8.0, 2 M NaCl, 10% glycerol, 0.5% NP40, 35 mM imidazole, 2 mM βME, 30 min at 4°C; Coomassie-stained SDS-PAGE; conditions: both partners purified
T3 construct: histone H4, Drosophila melanogaster (dm H4); plasmid pET22b H4, gift of Karolin Luger; also called CENP-A/H4; CENP-A/H4 complex

[6] = molecular target: T4, CENP-A-GFP-LacI (in U2OS cells) (Drosophila melanogaster, UniProt Q9V6Q2 1-225); experiment: LacO/LacI tethering assay (recruitment seen by immunofluorescence); human U2OS cells with a LacO array; GFP-LacI fusion tethered, recruitment of co-transfected CAL1-V5 measured at the LacO spot; conditions: partners not purified
T4 construct: CENP-A (CID), Drosophila melanogaster; source: U2OS cells with a LacO array, transfected (pN2-CMV vector), in cells; not shown: GFP, C-terminal, kept; LacI, C-terminal, kept
T4 sequence (looked up): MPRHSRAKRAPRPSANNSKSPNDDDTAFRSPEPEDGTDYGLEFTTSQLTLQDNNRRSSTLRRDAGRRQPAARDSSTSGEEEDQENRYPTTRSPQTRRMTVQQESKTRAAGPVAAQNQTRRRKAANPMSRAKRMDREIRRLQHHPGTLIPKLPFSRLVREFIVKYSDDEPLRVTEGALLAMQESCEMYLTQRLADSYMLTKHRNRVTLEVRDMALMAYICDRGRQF

[7] = molecular target: the molecule itself; experiment: SEC-MALS; Superdex 75 increase 10/300 GL, 50 mM HEPES pH 8.0, 100 mM NaCl, 1 mM TCEP, 4°C
CENP-C(1264-1411) = molecular target: B5; experiment: AUC; sedimentation velocity (49 k rpm) and sedimentation equilibrium (26 k rpm), 4°C; untagged proteins and SEC purified untagged complex; a range of concentrations, up to 10 mg/ml; conditions: both partners purified
[8] = molecular target: T5, His-CAL1(1-160-LL-841-979)/CENP-A(101-225)/H4 (Drosophila melanogaster, UniProt Q9VEN2 1-160; Q9VEN2 841-979; Q9V6Q2 101-225; P84040 1-103); experiment: SEC; refolded His-CAL1(1-160-LL-841-979)/CENP-A(101-225)/H4 alone or mixed with 1.2 molar excess of His-CENP-C(1264-1411); Superdex 200 increase 10/300, 20 mM Tris-HCl pH 8.0, 100 mM NaCl, 2 mM DTT; conditions: both partners purified
T5 construct: CAL1, Drosophila melanogaster, residues 1-160; flexible linker (LL) in place of residues 161-840; histone H4, Drosophila melanogaster (dm H4); plasmid pET22b H4; not shown: His, N-terminal, kept; copies: + +

His-CENP-C(1264-1411) = molecular target: B7; experiment: as above; conditions: both partners purified
CENP-A(101-225)-H4 [9] = molecular target: T3, CENP-A(101-225)-H4; experiment: as above; conditions: both partners purified

B1: CENP-A(144-225) (domain or fragment, Drosophila melanogaster, UniProt Q9V6Q2 144-225, looked up)
chain: PGTLIPKLPFSRLVREFIVKYSDDEPLRVTEGALLAMQESCEMYLTQRLADSYMLTKHRNRVTLEVRDMALMAYICDRGRQF
H4 [1]
  binding result: binds
His-CAL1(1-160) [2]
  binding result: binds

B2: CENP-A(101-225) (domain or fragment, Drosophila melanogaster, UniProt Q9V6Q2 101-225, looked up)
chain: QQESKTRAAGPVAAQNQTRRRKAANPMSRAKRMDREIRRLQHHPGTLIPKLPFSRLVREFIVKYSDDEPLRVTEGALLAMQESCEMYLTQRLADSYMLTKHRNRVTLEVRDMALMAYICDRGRQF
notes: also called CID; histone fold domain of CENP-A
H4 [3]
  binding result: binds
His-CAL1(1-160) [4]
  binding result: binds

B3: His-CAL1(1-160) F43R (domain or fragment)
chain: MANAVVDEETLEAMVYERSKAWSSKMADFASLEDGMEIDVAERDNLFHGEDEDPDLDDVAKEAVEDNVPDEAKLEMGHINATSVTELTLILCANEDNEAKAEIEEILNQTVPVVEEHKRKWREAGLDRILDTFDEKQIEHHVGRWMRRHNSVYLEASPPK
notes: CAL1, Drosophila melanogaster, residues 1-160, codon optimised; source: E. coli, recombinant, purified; not shown: His, N-terminal, kept
CENP-A(101-225)-H4 [5]
  binding result: binds

B4: CAL1(F43R)-V5 (in U2OS cells) (natural protein, Drosophila melanogaster, UniProt Q9VEN2 1-979, looked up)
chain: MANAVVDEETLEAMVYERSKAWSSKMADFASLEDGMEIDVAERDNLFHGEDEDPDLDDVAKEAVEDNVPDEAKLEMGHINATSVTELTLILCANEDNEAKAEIEEILNQTVPVVEEHKRKWREAGLDRILDTFDEKQIEHHVGRWMRRHNSVYLEASPPKYLPPHHNSISDESDESMHSIDTARYIQQSRRRNAHMTNKNMTTIKMYRKHSHKRDELRAKYAYGDEQEHRHHMQAVLLRRRERERQLAYLASTPMQCVYSSGHHMRRKNLRKRRINSWMFDSASSSEEDTSFGGCDCHSCRRHYALSRSVYQSCPYGRGQREYHHRQMASRTMHTMRRQHTFDMEMDLRPRLPENECSCCNSDRLCSNVIHIANSSTEEWVVENRSNHLTQETQEKTRKQKHQPMDARKVSHQPVCSKGHEQKPLSSKATSVSKLVLSKEKYMQMFDSESSDEDNALAKKGLLCCSDKKKGMTFPTPNAAGKITHPTSSAKKAIRKEARPNGLAQIQEEGPTATNSPIESTYLPVAHMKSVSIDGSSGTSATFESPAKKAPKRGIRETSPLNGNELQQLISTIPIADEKASSLMEKVDNCIGRESFDDRNKDFMHMENSSTKTAVEKSTKQKRVSGKKSEIPKSIITNNEILEKNSTETLSEKQVAAKAKKQSVRKTGATGKPSTSRLKKSEKTKTTSSVTSTSKLEQVREEESDVSSEVLAKPKPQCSTTASILKQGGDGASNSEDDLQIALAMSKATYKEEQQKRKKTKREPSNKQPQSPAEKSMTVFNNQSVACNSTALANDTACYRVLPKRRGVKRAAAVSTTEEKTATNSSSSPTSSLEEMGSPTGGDPDCTVVTSTTGCEPPASERQEIPATIKITKRGILLHSPSAPEGASFTLTEQGLGKIIGERWARKYLKYHIGSRSFDSRHSVYYQPTPQLAAALSAPQDAQNIGNISGSSASDDDIFEQINRYGTVYSILENNSGDK
notes: CAL1, Drosophila melanogaster; non-codon-optimised; source: U2OS cells with a LacO array, transfected, in cells; not shown: V5, C-terminal, kept
[6]
  fold change of recruitment against CAL1 WT: 3 fold less than CAL1 WT

## B5
[7]
  stoichiometry N: 2

B6: CAL1(841-979) (domain or fragment, Drosophila melanogaster, UniProt Q9VEN2 841-979, looked up)
chain: GGDPDCTVVTSTTGCEPPASERQEIPATIKITKRGILLHSPSAPEGASFTLTEQGLGKIIGERWARKYLKYHIGSRSFDSRHSVYYQPTPQLAAALSAPQDAQNIGNISGSSASDDDIFEQINRYGTVYSILENNSGDK
notes: only residues 890-913 are seen in the structure; source: E. coli BL21 (DE3) Gold, purified; not shown: His6, N-terminal, cleaved; SUMO, N-terminal, cleaved
CENP-C(1264-1411)
  stoichiometry N: 1 CAL1 per CENP-C dimer (2:1 CENP-C:CAL1)

## B7
[8]
  binding result: binds

B8: His-CAL1(1-160-LL-841-979) (domain or fragment, Drosophila melanogaster)
chain: MANAVVDEETLEAMVYERSKAWSSKMADFASLEDGMEIDVAEFDNLFHGEDEDPDLDDVAKEAVEDNVPDEAKLEMGHINATSVTELTLILCANEDNEAKAEIEEILNQTVPVVEEHKRKWREAGLDRILDTFDEKQIEHHVGRWMRRHNSVYLEASPPKGSSGGSSGGGDPDCTVVTSTTGCEPPASERQEIPATIKITKRGILLHSPSAPEGASFTLTEQGLGKIIGERWARKYLKYHIGSRSFDSRHSVYYQPTPQLAAALSAPQDAQNIGNISGSSASDDDIFEQINRYGTVYSILENNSGDK
notes: CAL1, Drosophila melanogaster, residues 1-160; flexible linker (LL) in place of residues 161-840; not shown: His, N-terminal, kept
His-CENP-C(1264-1411)
  binding result: binds
CENP-A(101-225)-H4 [9]
  binding result: binds

— PMC7110144, “Structural basis for centromere maintenance by Drosophila CENP‐A chaperone CAL1” (The EMBO Journal, 2020)
